The target of experiment [1] is A4V mutant copper-zinc superoxide dismutase (A4VSOD1) (human) (UniProt P00441). Put plainly: AUC.
Experiment [2] has the same target. Put plainly: atomic force microscopy.

Values joined by “and” are separate entries in the source; they are usually repeats but may differ in a detail not shown here. Equal entries are not always repeated.

A word on the stoichiometry N: it is a count of units in the complex or per binding partner. For the substance “A4V mutant copper-zinc superoxide dismutase (A4VSOD1) (from UniProt P00441 6-154) (enzyme)”, in experiment [1], the percent of total protein as dimer is 31.7%; the percent of total protein as tetramer is 37.6%; the stoichiometry N is 2 and 4. In experiment [2], this substance had a stoichiometry N of 4.

For the origin of these results see article PMC3384721.
